Laboratory results: patent publication US12427210B2, “Compounds comprising a fibroblast activation protein ligand and use thereof” (priority 2019, dated 2025)

Tests used:
Na+ channel (site 2) = assay: radioligand displacement, compound at 10 µM
[1] = target: Ca2+ channel (L, dihydropyridine site); assay: radioligand displacement, compound at 10 µM
BZD (central) = assay: radioligand displacement, compound at 10 µM
MAO-A = assay: radioligand displacement, compound at 10 µM
NMDA = assay: radioligand displacement, compound at 10 µM
KV channel = assay: radioligand displacement, compound at 10 µM
[2] = target: T1, Cathepsin F (Homo sapiens (Human)) (UniProt Q9UBX1)
T1 sequence: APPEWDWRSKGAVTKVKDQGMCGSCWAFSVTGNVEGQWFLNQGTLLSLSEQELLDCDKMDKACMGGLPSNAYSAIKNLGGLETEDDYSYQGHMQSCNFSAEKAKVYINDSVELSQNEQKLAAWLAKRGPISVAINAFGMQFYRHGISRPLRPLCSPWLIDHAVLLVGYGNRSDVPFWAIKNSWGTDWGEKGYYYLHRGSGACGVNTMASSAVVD

[3] = target: T2, Ubiquitin carboxyl-terminal hydrolase 2 (Homo sapiens (Human)) (UniProt O75604)
T2 sequence: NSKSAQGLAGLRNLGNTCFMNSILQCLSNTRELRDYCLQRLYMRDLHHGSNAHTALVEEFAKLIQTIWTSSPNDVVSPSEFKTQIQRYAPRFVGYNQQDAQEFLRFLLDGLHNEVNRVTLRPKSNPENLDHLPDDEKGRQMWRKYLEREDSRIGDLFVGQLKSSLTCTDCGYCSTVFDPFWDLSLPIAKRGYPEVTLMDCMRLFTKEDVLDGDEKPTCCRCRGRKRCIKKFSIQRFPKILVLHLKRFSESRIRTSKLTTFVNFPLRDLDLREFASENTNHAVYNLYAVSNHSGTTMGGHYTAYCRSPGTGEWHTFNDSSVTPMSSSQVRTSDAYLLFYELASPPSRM

[4] = target: Activated Protein C (Homo sapiens (Human)) (UniProt P04070)
[5] = target: serine protease NS3 (a.a. 3-181) from Hepatitis C virus genotype 1b (mutant R155K) (Hepatitis C virus genotype 1b)
[6] = target: T3, Caspase-7 (Homo sapiens (Human)) (UniProt P55210)
T3 sequence: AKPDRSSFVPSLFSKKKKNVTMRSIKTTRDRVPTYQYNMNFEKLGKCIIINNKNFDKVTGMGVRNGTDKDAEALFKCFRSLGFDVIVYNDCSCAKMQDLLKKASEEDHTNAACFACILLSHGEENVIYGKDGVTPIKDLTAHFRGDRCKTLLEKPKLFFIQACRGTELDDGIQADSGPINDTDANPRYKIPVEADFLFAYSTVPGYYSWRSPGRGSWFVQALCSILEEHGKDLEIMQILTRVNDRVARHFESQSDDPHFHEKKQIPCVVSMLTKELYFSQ

[7] = target: Caspase-9 (Homo sapiens (Human)) (UniProt P55211)
[8] = target: serine protease NS3 (a.a. 3-181) from Hepatitis C virus genotype 1a (mutant D168V) (Hepatitis C virus genotype 1a)
[9] = target: T4, Deubiquitinase OTUD6B (Homo sapiens (Human)) (UniProt Q8N6M0)
T4 sequence: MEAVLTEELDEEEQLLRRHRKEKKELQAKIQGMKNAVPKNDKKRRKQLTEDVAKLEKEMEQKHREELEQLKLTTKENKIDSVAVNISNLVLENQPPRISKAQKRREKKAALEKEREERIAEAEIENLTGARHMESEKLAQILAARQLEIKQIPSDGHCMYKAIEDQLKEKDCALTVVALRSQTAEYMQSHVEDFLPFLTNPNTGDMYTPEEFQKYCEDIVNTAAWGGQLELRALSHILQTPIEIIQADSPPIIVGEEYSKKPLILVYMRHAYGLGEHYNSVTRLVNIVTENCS

[10] = target: serine protease NS3 (a.a. 3-181) from Hepatitis C virus genotype 1b (mutant R155Q) (Hepatitis C virus genotype 1b)
[11] = target: Cathepsin B (Homo sapiens (Human)) (UniProt P07858)
[12] = target: Matrix metalloprotease 2 (Homo sapiens (Human)) (UniProt P08253)
[13] = target: Ubiquitin carboxyl-terminal hydrolase 10 (Homo sapiens (Human)) (UniProt Q14694)
[14] = target: Ataxin3 (Homo sapiens (Human)) (UniProt P54252)
[15] = target: DPP9 (Homo sapiens (Human)) (UniProt Q86TI2)
[16] = target: Ubiquitin carboxyl-terminal hydrolase 8 (Homo sapiens (Human)) (UniProt P40818)
[17] = target: FAP (enzyme of the specificity protease screening) (Homo sapiens (Human)) (UniProt Q12884)
COX1(h) (human) = COX1(h) (human) (UniProt P23219)
Lck kinase (h) (human) = Lck kinase (h) (human) (UniProt P06239)
COX2(h) (human) = target: T5, COX2(h) (human) (UniProt P35354)
T5 sequence: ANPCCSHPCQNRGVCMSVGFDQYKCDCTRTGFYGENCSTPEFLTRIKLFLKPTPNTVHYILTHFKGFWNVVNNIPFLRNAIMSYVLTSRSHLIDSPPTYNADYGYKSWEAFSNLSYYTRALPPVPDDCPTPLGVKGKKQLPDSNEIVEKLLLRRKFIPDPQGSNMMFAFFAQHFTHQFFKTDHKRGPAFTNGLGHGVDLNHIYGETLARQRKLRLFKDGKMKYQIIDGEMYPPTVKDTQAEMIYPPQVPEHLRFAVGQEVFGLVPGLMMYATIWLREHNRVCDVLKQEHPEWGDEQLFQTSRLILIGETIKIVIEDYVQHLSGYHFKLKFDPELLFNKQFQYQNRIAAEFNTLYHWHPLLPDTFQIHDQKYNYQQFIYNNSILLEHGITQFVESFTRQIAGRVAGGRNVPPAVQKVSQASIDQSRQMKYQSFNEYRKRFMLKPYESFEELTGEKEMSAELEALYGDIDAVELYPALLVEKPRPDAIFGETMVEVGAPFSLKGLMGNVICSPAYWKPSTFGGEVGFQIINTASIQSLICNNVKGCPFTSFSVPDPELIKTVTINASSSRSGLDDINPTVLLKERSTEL

PDE4D2 (h) (human) = PDE4D2 (h) (human) (UniProt Q08499)
PDE3A (h) (human) = PDE3A (h) (human) (UniProt Q14432)
[18] = target: Acetylcholinesterase (h) (human) (UniProt P22303)
Chain of Acetylcholinesterase (h) (human) (P22303 32-614 limits assumed): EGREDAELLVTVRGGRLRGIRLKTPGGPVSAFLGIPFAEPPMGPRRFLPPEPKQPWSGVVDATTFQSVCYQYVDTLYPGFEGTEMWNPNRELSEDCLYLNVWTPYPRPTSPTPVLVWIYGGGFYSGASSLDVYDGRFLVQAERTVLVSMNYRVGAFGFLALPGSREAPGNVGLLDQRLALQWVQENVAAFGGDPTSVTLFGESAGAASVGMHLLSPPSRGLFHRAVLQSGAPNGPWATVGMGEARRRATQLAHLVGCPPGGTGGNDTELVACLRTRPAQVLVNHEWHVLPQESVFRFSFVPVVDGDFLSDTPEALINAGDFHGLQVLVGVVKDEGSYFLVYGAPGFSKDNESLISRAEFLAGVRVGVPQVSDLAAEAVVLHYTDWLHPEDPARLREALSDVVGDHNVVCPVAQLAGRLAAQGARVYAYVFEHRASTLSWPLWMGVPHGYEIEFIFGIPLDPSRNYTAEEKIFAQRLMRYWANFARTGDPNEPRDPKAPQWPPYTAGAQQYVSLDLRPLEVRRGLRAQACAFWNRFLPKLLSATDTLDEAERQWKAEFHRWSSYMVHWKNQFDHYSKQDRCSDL

Chain of Ataxin3 (Homo sapiens (Human)) (P54252 whole entry): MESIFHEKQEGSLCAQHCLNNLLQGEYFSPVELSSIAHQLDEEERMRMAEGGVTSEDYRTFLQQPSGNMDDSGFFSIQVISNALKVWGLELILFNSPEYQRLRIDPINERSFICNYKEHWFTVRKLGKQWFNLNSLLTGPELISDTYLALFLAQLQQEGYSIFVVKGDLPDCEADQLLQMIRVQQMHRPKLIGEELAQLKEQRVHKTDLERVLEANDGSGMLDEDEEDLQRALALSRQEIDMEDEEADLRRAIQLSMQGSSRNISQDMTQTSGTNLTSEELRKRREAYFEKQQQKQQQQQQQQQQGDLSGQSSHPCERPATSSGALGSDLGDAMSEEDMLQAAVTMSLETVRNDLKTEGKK
Chain of FAP (enzyme of the specificity protease screening) (Homo sapiens (Human)) (Q12884 26-760 limits assumed): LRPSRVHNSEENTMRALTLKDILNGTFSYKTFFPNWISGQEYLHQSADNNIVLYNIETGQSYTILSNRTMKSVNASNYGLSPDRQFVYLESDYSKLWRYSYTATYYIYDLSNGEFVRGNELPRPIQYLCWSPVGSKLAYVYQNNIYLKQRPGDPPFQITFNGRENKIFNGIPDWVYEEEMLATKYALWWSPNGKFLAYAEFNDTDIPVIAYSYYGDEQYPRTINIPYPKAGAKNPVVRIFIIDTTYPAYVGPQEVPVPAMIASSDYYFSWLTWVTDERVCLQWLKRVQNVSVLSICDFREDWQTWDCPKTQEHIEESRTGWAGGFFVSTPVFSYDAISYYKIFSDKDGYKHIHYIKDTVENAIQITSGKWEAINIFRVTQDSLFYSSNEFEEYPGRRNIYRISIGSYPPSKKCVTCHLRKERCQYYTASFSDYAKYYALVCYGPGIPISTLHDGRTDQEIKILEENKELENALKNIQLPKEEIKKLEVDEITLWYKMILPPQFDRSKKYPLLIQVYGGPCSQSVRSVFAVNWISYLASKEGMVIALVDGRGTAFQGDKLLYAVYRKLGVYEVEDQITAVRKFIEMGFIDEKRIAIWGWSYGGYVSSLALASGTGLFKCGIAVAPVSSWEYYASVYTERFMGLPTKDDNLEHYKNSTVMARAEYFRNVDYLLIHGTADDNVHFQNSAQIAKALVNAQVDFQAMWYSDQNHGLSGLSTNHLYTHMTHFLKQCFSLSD
Chain of Caspase-9 (Homo sapiens (Human)) (P55211 whole entry): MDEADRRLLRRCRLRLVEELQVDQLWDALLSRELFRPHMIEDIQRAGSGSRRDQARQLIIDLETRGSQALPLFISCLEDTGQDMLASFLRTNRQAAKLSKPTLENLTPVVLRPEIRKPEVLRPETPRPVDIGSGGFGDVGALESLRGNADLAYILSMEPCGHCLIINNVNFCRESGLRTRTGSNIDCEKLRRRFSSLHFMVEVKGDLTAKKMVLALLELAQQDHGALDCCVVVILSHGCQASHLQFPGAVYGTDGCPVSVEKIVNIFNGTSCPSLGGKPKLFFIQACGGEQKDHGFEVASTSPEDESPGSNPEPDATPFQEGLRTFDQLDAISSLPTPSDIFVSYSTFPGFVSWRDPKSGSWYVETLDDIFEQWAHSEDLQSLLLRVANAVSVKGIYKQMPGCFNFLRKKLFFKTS
Chain of Ubiquitin carboxyl-terminal hydrolase 10 (Homo sapiens (Human)) (Q14694 whole entry): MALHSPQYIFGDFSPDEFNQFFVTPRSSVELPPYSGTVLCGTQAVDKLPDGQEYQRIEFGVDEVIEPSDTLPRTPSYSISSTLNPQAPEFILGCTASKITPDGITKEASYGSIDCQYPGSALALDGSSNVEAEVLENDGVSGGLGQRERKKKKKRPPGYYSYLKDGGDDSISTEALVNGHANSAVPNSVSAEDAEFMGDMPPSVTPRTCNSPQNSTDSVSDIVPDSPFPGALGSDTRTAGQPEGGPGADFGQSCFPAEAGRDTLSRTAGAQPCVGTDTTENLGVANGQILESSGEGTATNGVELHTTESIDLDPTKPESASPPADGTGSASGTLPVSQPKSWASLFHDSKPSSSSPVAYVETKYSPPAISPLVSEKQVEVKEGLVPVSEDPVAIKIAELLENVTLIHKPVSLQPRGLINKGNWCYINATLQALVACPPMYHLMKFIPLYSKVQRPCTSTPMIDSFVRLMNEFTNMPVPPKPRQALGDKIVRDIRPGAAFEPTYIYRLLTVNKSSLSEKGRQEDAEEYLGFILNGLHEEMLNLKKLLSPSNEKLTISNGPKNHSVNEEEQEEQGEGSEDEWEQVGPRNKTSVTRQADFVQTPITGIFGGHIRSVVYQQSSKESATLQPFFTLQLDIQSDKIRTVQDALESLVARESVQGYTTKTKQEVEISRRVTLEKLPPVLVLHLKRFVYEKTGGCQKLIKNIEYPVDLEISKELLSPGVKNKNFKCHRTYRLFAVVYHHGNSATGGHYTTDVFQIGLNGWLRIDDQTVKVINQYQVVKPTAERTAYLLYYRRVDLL
Chain of Matrix metalloprotease 2 (Homo sapiens (Human)) (P08253 110-660): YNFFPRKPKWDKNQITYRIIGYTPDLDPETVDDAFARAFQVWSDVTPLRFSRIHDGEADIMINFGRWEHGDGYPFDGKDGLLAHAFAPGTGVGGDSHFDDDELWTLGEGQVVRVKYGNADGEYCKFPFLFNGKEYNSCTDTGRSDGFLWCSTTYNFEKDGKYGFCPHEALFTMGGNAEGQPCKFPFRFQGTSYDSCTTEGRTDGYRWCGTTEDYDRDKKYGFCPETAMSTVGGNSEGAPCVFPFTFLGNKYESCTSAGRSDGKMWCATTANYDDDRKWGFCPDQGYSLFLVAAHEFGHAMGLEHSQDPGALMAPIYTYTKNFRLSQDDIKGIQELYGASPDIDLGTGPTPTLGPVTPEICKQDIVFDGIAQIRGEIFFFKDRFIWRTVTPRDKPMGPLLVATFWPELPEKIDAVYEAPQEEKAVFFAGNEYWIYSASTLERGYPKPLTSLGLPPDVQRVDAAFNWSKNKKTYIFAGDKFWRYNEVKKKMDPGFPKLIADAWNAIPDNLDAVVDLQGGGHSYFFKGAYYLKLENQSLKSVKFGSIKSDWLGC
Chain of PDE4D2 (h) (human) (Q08499 303-809): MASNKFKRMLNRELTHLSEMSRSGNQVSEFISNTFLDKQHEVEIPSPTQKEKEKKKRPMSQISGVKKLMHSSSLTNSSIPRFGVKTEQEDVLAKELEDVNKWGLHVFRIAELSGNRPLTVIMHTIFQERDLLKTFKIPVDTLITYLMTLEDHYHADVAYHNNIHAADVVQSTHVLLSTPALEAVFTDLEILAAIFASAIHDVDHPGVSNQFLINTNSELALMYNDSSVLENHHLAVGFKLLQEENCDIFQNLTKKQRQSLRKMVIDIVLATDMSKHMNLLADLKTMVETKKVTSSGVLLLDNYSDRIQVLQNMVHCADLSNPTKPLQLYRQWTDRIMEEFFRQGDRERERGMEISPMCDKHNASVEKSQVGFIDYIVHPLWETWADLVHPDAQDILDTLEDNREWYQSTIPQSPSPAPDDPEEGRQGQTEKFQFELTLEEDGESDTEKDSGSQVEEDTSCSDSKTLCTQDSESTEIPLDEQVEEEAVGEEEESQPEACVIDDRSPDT
Chain of COX1(h) (human) (P23219 24-599 limits assumed): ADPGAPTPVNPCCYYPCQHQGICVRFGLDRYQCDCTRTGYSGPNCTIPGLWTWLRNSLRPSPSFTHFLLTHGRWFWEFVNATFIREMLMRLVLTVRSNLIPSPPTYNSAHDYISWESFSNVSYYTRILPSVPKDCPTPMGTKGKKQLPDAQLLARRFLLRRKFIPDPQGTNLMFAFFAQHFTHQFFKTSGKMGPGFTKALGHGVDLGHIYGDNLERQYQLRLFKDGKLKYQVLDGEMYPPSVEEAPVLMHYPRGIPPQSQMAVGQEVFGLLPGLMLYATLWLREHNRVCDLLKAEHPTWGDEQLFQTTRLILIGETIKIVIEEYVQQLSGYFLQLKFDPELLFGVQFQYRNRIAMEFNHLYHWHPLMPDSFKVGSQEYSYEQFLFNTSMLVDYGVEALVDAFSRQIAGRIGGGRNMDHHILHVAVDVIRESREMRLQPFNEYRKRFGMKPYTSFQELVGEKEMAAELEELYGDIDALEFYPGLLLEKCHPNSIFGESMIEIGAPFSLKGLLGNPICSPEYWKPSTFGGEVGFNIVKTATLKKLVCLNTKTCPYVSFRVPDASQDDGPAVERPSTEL

| Substance | % Inhibition of Specific Binding (Na+ channel (site 2)) | % Inhibition of Specific Binding [1] | % Inhibition of Specific Binding (BZD (central)) | % Inhibition of Specific Binding (MAO-A) | % Inhibition of Specific Binding (NMDA) | % Inhibition of Specific Binding (KV channel) | Percentage inhibition (%) (% inhibition at 10 µM) [2] | Percentage inhibition (%) (% inhibition at 10 µM) [3] | Percentage inhibition (%) (% inhibition at 10 µM) [4] | Percentage inhibition (%) (% inhibition at 10 µM) [5] | Percentage inhibition (%) (% inhibition at 10 µM) [6] | Percentage inhibition (%) (% inhibition at 10 µM) [7] | Percentage inhibition (%) (% inhibition at 10 µM) [8] | Percentage inhibition (%) (% inhibition at 10 µM) [9] | Percentage inhibition (%) (% inhibition at 10 µM) [10] | Percentage inhibition (%) (% inhibition at 10 µM) [11] | Percentage inhibition (%) (% inhibition at 10 µM) [12] | Percentage inhibition (%) (% inhibition at 10 µM) [13] | Percentage inhibition (%) (% inhibition at 10 µM) [14] | Percentage inhibition (%) (% inhibition at 10 µM) [15] | also measured |
| --- | --- | --- | --- | --- | --- | --- | --- | --- | --- | --- | --- | --- | --- | --- | --- | --- | --- | --- | --- | --- | --- |
| Hex-[Cys(tMeBn(DOTA-AET))-Pro-Pro-Thr-Gln-Phe-Cys]-OH (3BP-3554) (peptide) | 14% | 54% | 5% | -25% | 1% | 4% | -25 | -1 | 1 | 0 | -7 | -2 | -372 | 0 | -5 | 2 | -2 | -1 | -1 | -5 | Percentage inhibition (%) (% inhibition at 10 µM) [16]: 1; Percentage inhibition (%) (% inhibition at 1 µM) [17]: 97; % inhibition of control enzyme activity (COX1(h) (human)): 8 % at 10 µM; % inhibition of control enzyme activity (Lck kinase (h) (human)): -4 % at 10 µM; % inhibition of control enzyme activity (COX2(h) (human)): -22 % at 10 µM; % inhibition of control enzyme activity (PDE4D2 (h) (human)): -4 % at 10 µM; % inhibition of control enzyme activity (PDE3A (h) (human)): -37 % at 10 µM; % inhibition of control enzyme activity [18]: 1 % at 10 µM |
| Hex-[Cys(tMeBn(DOTA-PP))-Pro-Pro-Thr-Gln-Phe-Cys]-Asp-NH2 (3BP-3407) (peptide) | -7% | 42% | -9% | -5% | 9% | -5% | -24 | 7 | 8 | 5 | -3 | 8 | -68 | 15 | 2 | 36 | 3 | 5 | 10 | 0 | Percentage inhibition (%) (% inhibition at 10 µM) [16]: 6; Percentage inhibition (%) (% inhibition at 1 µM) [17]: 98; % inhibition of control enzyme activity (COX1(h) (human)): 10 % at 10 µM; % inhibition of control enzyme activity (Lck kinase (h) (human)): 10 % at 10 µM; % inhibition of control enzyme activity (COX2(h) (human)): -14 % at 10 µM; % inhibition of control enzyme activity (PDE4D2 (h) (human)): -5 % at 10 µM; % inhibition of control enzyme activity (PDE3A (h) (human)): -3 % at 10 µM; % inhibition of control enzyme activity [18]: -6 % at 10 µM |
